Data published in patent US20100222258A1 (KABUSHIKI KAISHA HAYASHIBARA SEIBUTSU KAGAKU KENKYUJO, published 2010).
Where a chain is given by its changes, count along the chain named.

T1: TNF-R1 (a protein having the amino acid sequence, Accession No. M58286 registered at GENBANK) (UniProt P19438 30-211, limits assumed)
T1 construct: also called TNF receptor having a molecular weight of 55 kilo daltons
T1 sequence (looked up): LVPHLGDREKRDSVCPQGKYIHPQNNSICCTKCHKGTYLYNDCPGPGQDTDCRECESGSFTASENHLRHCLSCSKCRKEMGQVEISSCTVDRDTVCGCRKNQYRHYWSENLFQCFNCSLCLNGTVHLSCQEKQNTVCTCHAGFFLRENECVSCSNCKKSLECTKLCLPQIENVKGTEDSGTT

T2: TNF-R2 (a protein having the amino acid sequence, Accession No. M55994 registered at GENBANK) (UniProt P20333 23-257, limits assumed)
T2 construct: also called TNF receptor with 75 kilo daltons
T2 sequence (looked up): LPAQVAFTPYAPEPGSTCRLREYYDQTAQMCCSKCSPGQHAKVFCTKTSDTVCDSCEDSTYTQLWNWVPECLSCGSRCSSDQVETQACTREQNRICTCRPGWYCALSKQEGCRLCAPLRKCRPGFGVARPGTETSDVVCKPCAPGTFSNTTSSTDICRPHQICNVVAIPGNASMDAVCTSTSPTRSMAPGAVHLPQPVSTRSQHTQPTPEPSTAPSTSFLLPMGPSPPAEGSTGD

T3: TNF-R1 on HEp-2 cells (human, UniProt P19438 30-455)
T3 sequence (looked up): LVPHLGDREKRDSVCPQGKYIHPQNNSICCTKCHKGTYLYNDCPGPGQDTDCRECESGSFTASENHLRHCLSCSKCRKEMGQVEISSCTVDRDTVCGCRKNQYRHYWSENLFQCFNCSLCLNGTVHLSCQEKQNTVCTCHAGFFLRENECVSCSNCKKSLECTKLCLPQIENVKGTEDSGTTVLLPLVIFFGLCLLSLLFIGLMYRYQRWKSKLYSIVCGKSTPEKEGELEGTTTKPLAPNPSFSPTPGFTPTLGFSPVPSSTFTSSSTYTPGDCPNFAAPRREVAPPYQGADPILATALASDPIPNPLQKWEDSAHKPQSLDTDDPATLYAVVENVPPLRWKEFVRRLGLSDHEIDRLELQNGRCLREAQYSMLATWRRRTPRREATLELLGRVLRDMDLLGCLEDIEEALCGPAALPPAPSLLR

T4: TNF-R1 on L-M cells (mouse, UniProt P25118 30-454)
T4 sequence (looked up): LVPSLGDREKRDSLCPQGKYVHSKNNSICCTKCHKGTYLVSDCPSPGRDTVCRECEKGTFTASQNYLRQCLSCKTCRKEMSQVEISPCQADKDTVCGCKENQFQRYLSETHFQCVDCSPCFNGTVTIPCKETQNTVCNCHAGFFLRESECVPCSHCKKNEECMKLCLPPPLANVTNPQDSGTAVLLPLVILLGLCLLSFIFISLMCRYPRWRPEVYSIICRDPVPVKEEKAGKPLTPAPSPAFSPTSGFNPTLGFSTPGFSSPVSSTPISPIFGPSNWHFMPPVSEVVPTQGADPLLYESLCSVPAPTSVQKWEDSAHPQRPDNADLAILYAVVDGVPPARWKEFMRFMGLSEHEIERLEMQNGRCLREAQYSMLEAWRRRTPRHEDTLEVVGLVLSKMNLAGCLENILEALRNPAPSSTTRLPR

B1: TNF mutant protein of clone No. 1 (ligand)
chain: VRSSSRTPSDMPVAHVVANPQAEGQLQWQNRWANALLANGVELRDNQLVVPSEGLYLIYSQVLFSGQGCPSTHVLLTHTISRIAVSYQTPVNLLSAIRSPCQRETPEGAEANPWYEPIYLGGVFQLEPGDRLSAEINRPDYLDFAESGQVYFGIIAL
notes: Mutant of lysine-replaced TNF, made in E. coli
B2: TNF mutant protein of clone No. 17 (ligand)
chain: B1 chain with Q29L, W32R, A84S, V85K, S86T, Q88T, T89H
notes: as for B1
B3: TNF mutant protein of clone No. 38 (ligand)
chain: B1 chain with Q29L, W32R, A84G, V85G, S86P, T89R
notes: Mutant of lysine-replaced TNF, made in E. coli; also called TNF antagonist of clone No. 38
B4: TNF mutant protein of clone No. 19 (ligand)
chain: B1 chain with Q29L, W32R, A84S, V85Y, S86N, Q88N, T89G
notes: as for B1
B5: TNF mutant protein of clone No. 37 (ligand)
chain: B1 chain with Q29L, W32R, A84S, V85T, S86T, Y87H, Q88N, T89Q
notes: Mutant of lysine-replaced TNF, made in E. coli; also called TNF antagonist of clone No. 37
B6: TNF mutant protein of clone No. 24 (ligand)
chain: B1 chain with Q29L, W32R, A84T, V85H, S86K, Q88P, T89Q
notes: as for B1
B7: TNF mutant protein of clone No. 18 (ligand)
chain: B1 chain with Q29L, W32R, A84S, V85P, S86L, Q88P, T89K
notes: as for B1
B8: TNF mutant protein of clone No. 28 (ligand)
chain: B1 chain with Q29L, W32R, A84T, V85K, Q88S, T89K
notes: as for B1
B9: TNF mutant protein of clone No. 22 (ligand)
chain: B1 chain with Q29L, W32R, A84S, V85R, S86V, Q88T, T89A
notes: as for B1
B10: TNF mutant protein of clone No. 36 (ligand)
chain: B1 chain with Q29L, W32R, V85P, S86G, Q88S, T89H
notes: Mutant of lysine-replaced TNF, made in E. coli; also called TNF antagonist of clone No. 36
B11: TNF mutant protein of clone No. 23 (ligand)
chain: B1 chain with Q29L, W32R, A84T, V85T, S86A, Q88S, T89G
notes: as for B1
B12: TNF mutant protein of clone No. 29 (ligand)
chain: B1 chain with Q29L, W32R, A84T, V85E, S86Q, Q88S, T89H
notes: as for B1
B13: TNF mutant protein of clone No. 21 (ligand)
chain: B1 chain with Q29L, W32R, A84T, V85S, S86A, Q88G, T89P
notes: as for B1
B14: TNF mutant protein of clone No. 3 (ligand)
chain: B1 chain with Q29L, R31S, W32D, E146A, S147R
notes: as for B1
B15: TNF mutant protein of clone No. 6 (ligand)
chain: VRSSSRTPSDMPVAHVVANPQAEGQLQWSNRYANALLANGVELRDNQLVVPSEGLYLIYSQVLFSGQGCPSTHVLLTHTISRIAVSYQTPVNLLSAIRSPCQRETPEGAEANPWYEPIYLGGVFQLEPGDRLSAEINRPDYLDFSM
notes: Mutant of lysine-replaced TNF, made in E. coli; stop codon at position 147

Tests used:
[1] = target: T1, TNF-R1 (a protein having the amino acid …); assay: SPR (BIACORE 2000), receptor on sensor tip; grade 3 = 0.5 to 2 times that of recombinant TNF-α
Source text: (§1) Using the above detector based on surface plasmon resonance effect again, the resulting clones binding to TNF-R1 (or TNF-R2) were subjected to the remaining sensor tip conjugated with TNF-R2 (or TNF-R1) to measure receptor binding affinity and select clones having a variation of receptor binding affinity. […] The resulting DNAs were digested with restrict enzymes NdeI and BamHI to obtain DNA fragments. The resulting DNA fragments were introduced into a plasmid vector containing T7 promoter region, T7 terminator region, ampicillin resistant gene region and ColE1/Ori region (product name “pET-3a”, manufactured by “Novagen®” (EMD Biosciences, Inc.)) at the position of the above restriction sites. The resulting plasmid was introduced into E. coli BL21DE3 strain to obtain a transformed E. coli for producing the TNF mutant proteins. The obtained transformed E. coli was cultured according to usual method and centrifuged to collect E. coli pellet. The resulting pellet was washed twice with TES buffer (pH 8.0) (20 mM Tris-HCl, 10 mM ethylene diamine tetraacetic acid and 0.5 M sodium chloride) and admixed with TES buffer (pH 8.0) containing 0.2 mg/ml lysozyme. The resulting suspension was sonicated according to usual manner, and centrifuged to collect a precipitate containing the produced TNF mutant protein. The resulting precipitate was treated three times in a manner of admixing with TES buffer containing 1 (w/w) % Triton X-100, removed from supernatant by centrifuging, admixed with 50 mM Tris-HCl (pH 7.0) containing 8 M guanidine hydrochloride and 50 mM dithiothreitol, with stirring for 16 hours at ambient temperature under shielded condition, and centrifuged to collect a supernatant. The resulting supernatant was gently admixed with 100 time volumes of a aqueous solution containing 1 M Tris, 0.9 (w/v) % sodium chloride, 0.4 M L-arginine chloride, 2.5 mM reduced glutathione, 0.5 mM oxidized glutathione and 0.05 (w/v) % Tween 20, and kept at 4° C. for 16 hours.

[2] = target: T2, TNF-R2 (a protein having the amino acid …); assay: SPR (BIACORE 2000), receptor on sensor tip; grade 1 = 0.001 to 0.1 time that of recombinant TNF-α
Source text: as §1

TNF-R1 on HEp-2 cells = target: T3, TNF-R1 on HEp-2 cells; assay: cell-based or functional assay
TNF-R1 on L-M cells = target: T4, TNF-R1 on L-M cells; assay: cell-based or functional assay
[3] = target: T1, TNF-R1 (a protein having the amino acid …); assay: SPR (BIACORE 2000), receptor on sensor tip; grade 4 = two times or more that of recombinant TNF-α
Source text: as §1

Row | Binder | binding affinity relative to recombinant TNF-α [1] [fold] | binding affinity relative to recombinant TNF-α [2] [fold] | binding affinity relative to recombinant TNF-α [3] [fold] | other results
1 | B1 | 0.5 to 2 | 0.001 to 0.1 |  | 
2 | B2 | 0.5 to 2 | 0.001 to 0.1 |  | 
3 | B3 | 0.5 to 2 | 0.001 to 0.1 |  | Viability (%) of HEp-2 cells, 10 ng/ml TNF-α + 1,000 ng/ml TNF antagonist (9 without antagonist) (TNF-R1 on HEp-2 cells): 11%; Viability (%) of HEp-2 cells, 10 ng/ml TNF-α + 10,000 ng/ml TNF antagonist (9 without antagonist) (TNF-R1 on HEp-2 cells): 22%; Viability (%) of HEp-2 cells, 10 ng/ml TNF-α + 100,000 ng/ml TNF antagonist (9 without antagonist) (TNF-R1 on HEp-2 cells): 72%; Viability (%) of HEp-2 cells, 10 ng/ml TNF-α + 500,000 ng/ml TNF antagonist (9 without antagonist) (TNF-R1 on HEp-2 cells): 95%; Viability (%) of L-M cells, 10 ng/ml TNF-α + 1,000 ng/ml TNF antagonist (17 without antagonist) (TNF-R1 on L-M cells): 42%; Viability (%) of L-M cells, 10 ng/ml TNF-α + 10,000 ng/ml TNF antagonist (17 without antagonist) (TNF-R1 on L-M cells): 47%; Viability (%) of L-M cells, 10 ng/ml TNF-α + 100,000 ng/ml TNF antagonist (17 without antagonist) (TNF-R1 on L-M cells): 58%; Viability (%) of L-M cells, 10 ng/ml TNF-α + 500,000 ng/ml TNF antagonist (17 without antagonist) (TNF-R1 on L-M cells): 70%
4 | B4 |  | 0.001 to 0.1 | ≥ 2 | 
5 | B5 | 0.5 to 2 | 0.001 to 0.1 |  | Viability (%) of HEp-2 cells, 10 ng/ml TNF-α + 1,000 ng/ml TNF antagonist (9 without antagonist) (TNF-R1 on HEp-2 cells): 11%; Viability (%) of HEp-2 cells, 10 ng/ml TNF-α + 10,000 ng/ml TNF antagonist (9 without antagonist) (TNF-R1 on HEp-2 cells): 18%; Viability (%) of HEp-2 cells, 10 ng/ml TNF-α + 100,000 ng/ml TNF antagonist (9 without antagonist) (TNF-R1 on HEp-2 cells): 43%; Viability (%) of HEp-2 cells, 10 ng/ml TNF-α + 500,000 ng/ml TNF antagonist (9 without antagonist) (TNF-R1 on HEp-2 cells): 75%; Viability (%) of L-M cells, 10 ng/ml TNF-α + 1,000 ng/ml TNF antagonist (17 without antagonist) (TNF-R1 on L-M cells): 42%; Viability (%) of L-M cells, 10 ng/ml TNF-α + 10,000 ng/ml TNF antagonist (17 without antagonist) (TNF-R1 on L-M cells): 51%; Viability (%) of L-M cells, 10 ng/ml TNF-α + 100,000 ng/ml TNF antagonist (17 without antagonist) (TNF-R1 on L-M cells): 59%; Viability (%) of L-M cells, 10 ng/ml TNF-α + 500,000 ng/ml TNF antagonist (17 without antagonist) (TNF-R1 on L-M cells): 72%
6 | B6 |  | 0.001 to 0.1 | ≥ 2 | 
7 | B7 |  | 0.001 to 0.1 | ≥ 2 | 
8 | B8 | 0.5 to 2 | 0.001 to 0.1 |  | 
9 | B9 | 0.5 to 2 | 0.001 to 0.1 |  | 
10 | B10 | 0.5 to 2 | 0.001 to 0.1 |  | Viability (%) of HEp-2 cells, 10 ng/ml TNF-α + 1,000 ng/ml TNF antagonist (9 without antagonist) (TNF-R1 on HEp-2 cells): 12%; Viability (%) of HEp-2 cells, 10 ng/ml TNF-α + 10,000 ng/ml TNF antagonist (9 without antagonist) (TNF-R1 on HEp-2 cells): 13%; Viability (%) of HEp-2 cells, 10 ng/ml TNF-α + 100,000 ng/ml TNF antagonist (9 without antagonist) (TNF-R1 on HEp-2 cells): 38%; Viability (%) of HEp-2 cells, 10 ng/ml TNF-α + 500,000 ng/ml TNF antagonist (9 without antagonist) (TNF-R1 on HEp-2 cells): 74%; Viability (%) of L-M cells, 10 ng/ml TNF-α + 1,000 ng/ml TNF antagonist (17 without antagonist) (TNF-R1 on L-M cells): 43%; Viability (%) of L-M cells, 10 ng/ml TNF-α + 10,000 ng/ml TNF antagonist (17 without antagonist) (TNF-R1 on L-M cells): 54%; Viability (%) of L-M cells, 10 ng/ml TNF-α + 100,000 ng/ml TNF antagonist (17 without antagonist) (TNF-R1 on L-M cells): 63%; Viability (%) of L-M cells, 10 ng/ml TNF-α + 500,000 ng/ml TNF antagonist (17 without antagonist) (TNF-R1 on L-M cells): 59%
11 | B11 |  | 0.001 to 0.1 | ≥ 2 | 
12 | B12 | 0.5 to 2 | 0.001 to 0.1 |  | 
13 | B13 |  | 0.001 to 0.1 | ≥ 2 | 
14 | B14 | 0.5 to 2 | 0.001 to 0.1 |  | 
15 | B15 | 0.5 to 2 | 0.001 to 0.1 |  | 
